Experimental data taken from US20070207955A1, “Novel polypeptide and process for producing the same, and collagenase inhibitor” (priority 2006, published 2007).

Key:
[1] = molecular target: collagenase (MMP-1, human rheumatoid synovial fibroblast) (human) (UniProt P03956)
[2] = molecular target: polypeptide of Comparative Example 1 (polycondensate of H-(Pro-Hyp-Gly)10-OH) (Artificial Sequence)
[3] = molecular target: polypeptide of Example 2 (polycondensate of H-(Pro-Hyp-Gly)4-Pro-Gln-Gly-Ile-Ala-Gly-(Pro-Hyp-Gly)4-OH) (Artificial Sequence)
[4] = molecular target: polypeptide of Example 3 (co-polycondensate of H-(Pro-Hyp-Gly)10-OH and H-(Pro-Hyp-Gly)4-Pro-Gln-Gly-Ile-Ala-Gly-(Pro-Hyp-Gly)4-OH, equimolar) (Artificial Sequence)
[5] = molecular target: T1, collagenase (MMP-1, human rheumatoid synovial fibroblast) (Homo sapiens, UniProt P03956); assay: Test Example 2: collagenase inhibition, peak area of Dnp-Pro-Leu-Gly from decomposition of Dnp-Pro-Leu-Gly-Ile-Ala-Gly-Arg-NH2; format: biochemical; conditions: 0.025 mg polypeptide, 200 ng collagenase, 37° C. for one hour
T1 construct: collagenase (MMP-1, human rheumatoid synovial fibroblast); endogenous in cells; host or cells: human rheumatoid synovial fibroblast
T1 sequence (P03956 100-469): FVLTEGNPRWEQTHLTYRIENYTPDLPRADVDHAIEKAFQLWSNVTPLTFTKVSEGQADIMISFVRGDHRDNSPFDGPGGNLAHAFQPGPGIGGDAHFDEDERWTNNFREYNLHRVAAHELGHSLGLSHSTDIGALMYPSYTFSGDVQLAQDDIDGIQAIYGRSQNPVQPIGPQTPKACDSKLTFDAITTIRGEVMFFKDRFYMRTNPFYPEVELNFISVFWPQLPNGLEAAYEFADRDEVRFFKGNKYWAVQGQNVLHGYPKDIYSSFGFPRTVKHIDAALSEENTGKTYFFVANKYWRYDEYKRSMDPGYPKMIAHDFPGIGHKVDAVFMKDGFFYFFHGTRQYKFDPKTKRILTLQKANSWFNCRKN
Description: Each of the polypeptides (0.025 mg) obtained in the Examples 1 to 6 and Comparative Examples 1 and 2 was dissolved in 0.05 mL of a 50 mM Tris/HCl buffer (pH=7.5) containing 50 mM NaCl and 10 mM CaCl2. Further, to each of the solutions was added 200 ng of collagenase (MMP-1, human rheumatoid synovial fibroblast) which was dissolved in 0.05 mL of a 50 mM Tris/HCl buffer (pH=7.5) containing 50 mM NaCl and 10 mM CaCl2, and was added 0.01 mL of 1 mM DMSO solution of Dnp-Pro-Leu-Gly-Ile-Ala-Gly-Arg-NH2 (manufactured by Peptide Institute, Inc., Dnp represents 2,4-dinitrophenyl group). The resulting mixture was allowed to stand at 37° C. for one hour. Then, 0.2 mL of acetonitrile was added to the mixture, and the resultant was centrifuged at 10,000 rpm for 10 minutes.
Incidentally, as a control, a peak area of the peptide Dnp-Pro-Leu-Gly without addition of any polypeptide was measured. The peak area of the control was considered as 100, and the peak area detected by addition of each of the polypeptides obtained in Examples and Comparative Examples was calculated as a relative value to the control.

“polypeptide of Example 4 (co-polycondensate of H-(Pro-Hyp-Gly)10-OH and H-(Pro-Hyp-Gly)4-Pro-Gln-Gly-Ile-Ala-Gly-(Pro-Hyp-Gly)4-OH, 0.00081 mmol to 0.00009 mmol)” was tested. Which relative value of the peak area of Dnp-Pro-Leu-Gly (control without polypeptide = 100) (relative to control = 100) [1] did it give?
The relative value of the peak area of Dnp-Pro-Leu-Gly (control without polypeptide = 100) (relative to control = 100) was 22.

“collagenase (MMP-1, human rheumatoid synovial fibroblast) (from UniProt P03956) (enzyme)” was tested. Which change in the molecular weight peak by gel-permeation chromatography after 24 hours at 37 C with collagenase (molecular weight) [2] did it give?
The change in the molecular weight peak by gel-permeation chromatography after 24 hours at 37 C with collagenase (molecular weight) was 540000.

And the change in the molecular weight peak by gel-permeation chromatography after 24 hours at 37 C with collagenase (molecular weight) [3]?
Its change in the molecular weight peak by gel-permeation chromatography after 24 hours at 37 C with collagenase (molecular weight) is 540000.

What about the change in the molecular weight peak by gel-permeation chromatography after 24 hours at 37 C with collagenase (molecular weight) [4] of the same substance?
Its change in the molecular weight peak by gel-permeation chromatography after 24 hours at 37 C with collagenase (molecular weight) is 400000.

How did the relative value of the peak area of Dnp-Pro-Leu-Gly (control without polypeptide = 100) (relative to control = 100) [1] turn out when “polypeptide of Example 1, H-(Pro-Hyp-Gly)4-Pro-Gln-Gly-Ile-Ala-Gly-(Pro-Hyp-Gly)4-OH” was run?
Its relative value of the peak area of Dnp-Pro-Leu-Gly (control without polypeptide = 100) (relative to control = 100) is 5.

With “polypeptide of Example 5, H-(Pro-Hyp-Gly)4-Pro-Leu-Gly-Ile-Ala-Gly-(Pro-Hyp-Gly)4-OH” as the substance, how does the relative value of the peak area of Dnp-Pro-Leu-Gly (control without polypeptide = 100) (relative to control = 100) [1] read?
The relative value of the peak area of Dnp-Pro-Leu-Gly (control without polypeptide = 100) (relative to control = 100) was 4.

How did the relative value of the peak area of Dnp-Pro-Leu-Gly (control without polypeptide = 100) (relative to control = 100) [1] turn out when “polypeptide of Comparative Example 1 (polycondensate of H-(Pro-Hyp-Gly)10-OH)” was run?
The relative value of the peak area of Dnp-Pro-Leu-Gly (control without polypeptide = 100) (relative to control = 100) was 97.

For “polypeptide of Example 3 (co-polycondensate of H-(Pro-Hyp-Gly)10-OH and H-(Pro-Hyp-Gly)4-Pro-Gln-Gly-Ile-Ala-Gly-(Pro-Hyp-Gly)4-OH, equimolar)”, which relative value of the peak area of Dnp-Pro-Leu-Gly (control without polypeptide = 100) (relative to control = 100) [1] is on record?
The relative value of the peak area of Dnp-Pro-Leu-Gly (control without polypeptide = 100) (relative to control = 100) was 12.

Which relative value of the peak area of Dnp-Pro-Leu-Gly (control without polypeptide = 100) (relative to control = 100) [1] does the source give for “peptide of Comparative Example 2, H-(Pro-Hyp-Gly)10-OH” here?
Its relative value of the peak area of Dnp-Pro-Leu-Gly (control without polypeptide = 100) (relative to control = 100) is 96.

What does the source list for “H-(Pro-Hyp-Gly)10-OH [Comparative Example 2]”?
inhibition of the collagenase activity [5]: the inhibition of the collagenase activity was not recognized; relative value of the detected peak area of Dnp-Pro-Leu-Gly (control without polypeptide = 100) ([5]; pH 7.5): 96

“polypeptide of Example 6 (polycondensate of H-(Pro-Hyp-Gly)4-Pro-Leu-Gly-Ile-Ala-Gly-(Pro-Hyp-Gly)4-OH)” was tested. Which relative value of the peak area of Dnp-Pro-Leu-Gly (control without polypeptide = 100) (relative to control = 100) [1] did it give?
Its relative value of the peak area of Dnp-Pro-Leu-Gly (control without polypeptide = 100) (relative to control = 100) is 2.

How did the relative value of the peak area of Dnp-Pro-Leu-Gly (control without polypeptide = 100) (relative to control = 100) [1] turn out when “polypeptide of Example 2 (polycondensate of H-(Pro-Hyp-Gly)4-Pro-Gln-Gly-Ile-Ala-Gly-(Pro-Hyp-Gly)4-OH)” was run?
The relative value of the peak area of Dnp-Pro-Leu-Gly (control without polypeptide = 100) (relative to control = 100) was 3.
